# Data taken from patent US20070036810A1, “Cyclic amp response element activator proteins and uses related thereto” (priority 2003, published 2007).
# “Also recorded” adds a separate entry of the source.
# B1: K1: CREAP1 fragment, amino acids 1-170, SEQ ID NO 32, Flag fusion (protein)
# chain: MATSNNPRKFSEKIALHNQKQAEETAAFEEVMKDLSLTRAARLQLQKSQYLQLGPSRGQYYGGSLPNVNQIGSGTMDLPFQPSGFLGEALAAAPVSLTPFQSSGLDTSRTTRHHGLVDRVYRERGRLGSPHRRPLSVDKHGRQADSCPYGTMYLSPPADTSWRRTNSDSA
# modifications: Flag tag; human
# Tests used:
# [1] = test system: pCRE-Luc reporter (cyclic AMP response element); experiment: pCRE-Luc reporter assay of CREAP1 deletion fragments in Hela cells; format: cell-based; conditions: Flag-CREAP1 deletion constructs co-transfected with pCRE-Luc in Hela cells; Dual-Glo Luciferase 40 hrs after transfection
# Method: CREAP1 protein amino acids 1-170, 1-356, […], 1-580 and 170-650 are inserted into pFlag-CMV4 expression vector (Sigma, St. Louis, Mo.) by utilizing PCR strategy familiar to one of skill in the art. 10^4 Hela cells are split into each well of 96 well tissue culture plates. Cells are transfected 16 hours later with 100 ng of pCRE-Luc reporter construct, 30 ng of Renilla luciferase control plasmid together with 100 ng of pCMVSPORT6, pCMVSPORT-CREAP1 and different Flag-CREAP1 deletion fusion constructs respectively. Transfection is done with Fugene6 reagent (Roche Applied Biosciences) following the manufacturer's instructions. A Dual-Glo Luciferase assay (Promega) is conducted 40 hrs after transfection. Firefly luciferase counts are normalized to Renilla luciferase and plotted.
# To dissect the functional domains within the CREAP1 molecule, CREAP1 protein fragments of amino acids 1-170, 1-356, 1-494, 1-580 and 170-650 were subcloned into pFlag-CMV4 vector by utilizing PCR based strategy and tested for function in a Dual Glo Luciferase assay as described above.
# [2] = biological target: T1, endogenous CREB1 (Homo sapiens, UniProt P16220); experiment: Immuno-precipitation of FLAG-tagged CREAP1 variants and Western blot against CREB in HEK293 cells; format: binding; conditions: M2-agarose immuno-precipitation, Western blot against CREB
# T1 construct: endogenous in cells; host or cells: HEK293
# Method: To determine if CREAP1 can interact directly with CREB, K1 and K5 variants of CREAP1 (see Table 1) were transfected into HEK293 cell grown in 100 mm dishes (Falcon) using Fugene6 reagent (Roche Applied Science) according to the protocol provided by the manufacturer. 40 hours after transfection, cells were scraped from the plates in PBS and lysed in 800 μl of Low Stringency buffer containing: 10 mM HEPES pH 7.6, 250 mM NaCl, 5 mM EDTA, 1 mM DTT, 0.1% NP-40 and freshly dissolved protease inhibitors. Immuno-precipitation was carried out using M2-agarose beads (Sigma). Precipitated proteins were separated on 4-20% of SDS-PAGE (Invitrogen) and transferred to nitrocellulose membrane (Invitrogen). Western blot were performed using antibody against CREB (Cell Signaling Technology). As a negative control expression construct encoding FLAG-tagged human histone deacetylase 1 (HDAC1) was used.
# T1 sequence (P16220 whole entry): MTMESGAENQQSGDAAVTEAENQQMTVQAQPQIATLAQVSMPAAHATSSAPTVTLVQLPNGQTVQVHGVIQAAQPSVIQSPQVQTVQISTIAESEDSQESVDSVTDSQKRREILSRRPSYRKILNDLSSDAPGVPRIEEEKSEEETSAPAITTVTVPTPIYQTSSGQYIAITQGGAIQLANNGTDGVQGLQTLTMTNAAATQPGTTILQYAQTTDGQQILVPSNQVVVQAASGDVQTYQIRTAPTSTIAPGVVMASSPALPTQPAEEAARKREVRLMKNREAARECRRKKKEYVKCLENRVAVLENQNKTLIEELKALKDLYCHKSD
molecule,measurement,setting,value
B1,Activity,[1],not sufficient for its function; also recorded: Inactive
same,association with endogenous CREB1,[2],associated with endogenous CREB1
